The results in this text go back to the nanobody polyreactivity screen of Harvey et al. (2022).

A short description of this series: yeast display, Sf9 membrane polyspecificity reagent, FACS + sequencing; frameworks hold sequencing errors. Summed up:
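Using colony PCR, genes from sorted yeast display clones were amplified, then sequenced on MiSeq at 2 × 250 and filtered by CDR length. The clones had been stained with 10% biotinylated, detergent-solubilized Sf9 membrane reagent for 1 hour at 4 °C and sorted by FACS into low and high (top ~1%) gates on anti-HA and streptavidin fluorescence. Polyreactivity labels come from the gate of origin.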
Consider “QVQLVESGGGLVQAGGSLRLSCAASGSTFLNYAMGWYRQAPGKERELVAAISFSGGRTYYADSVKGRFTISRDNAKNTVYLQMNSLKPEDTAVYYCAAGGWRGHYYWGQGTQVTVSS”, for which the “polyreactivity (PSR sort gate)” value was “high polyreactivity”.

“QVQLVESGGGLVQAGGSLRLSCAASGSTFLNYAMGWYRQAPWKERELVAAISGRGGRTYYADSVKGRFTISRDNATNTVYLQMNSLKPEDTAVYYCANKRRGGYLYRQELDYWGQGTQVTVSS”: the “polyreactivity (PSR sort gate)” value is on record as “high polyreactivity”.

For “QVQLVESGGGLVQAGGSLRLSCAASGSTFLPNAMGWYRQAPGTERELVATITFDGGSTYYADSVKGRFTISRDNAKNTVYLQMNSLKPEDTAVYYCNTVELYWRGYDYWGQGTQVTVSS”, the “polyreactivity (PSR sort gate)” value is recorded as “high polyreactivity”.

As to “QVQLVESGGGLVQAGGSLRLSCAASGSTFLQNAMGWYRQAPGKEREFVAAISYTGANTYYADSVKGRFTISRDNAKNTVYLQMNSLKPEDTAVYYCNRYAKQYLSGTVPVNLDYWGQGTQVTVSS”, the “polyreactivity (PSR sort gate)” value is given as “high polyreactivity”.

“QVQLVESGGGLVQAGGSLRLSCAASGSTFLRYAMGWYRQAPGKERELVAAINWSGGGTSYADSVKWRFTISRDNAKNTVYLQMNSLKPEDTEGYSCAAYFRYSYYWSEYWGQGTQVTVSS”: the “polyreactivity (PSR sort gate)” value is given as “high polyreactivity”.

With “QVQLVESGGGLVQAGGSLRLSCAASGSTFLRYAMGWYRQAPGKERELVAAISLSGGRTHYADSVKGRFTISRDNAKNTVYLQMNSLKPEDTAVYYCAARNTGPVQYYYWGQGTQVTVSS”, the “polyreactivity (PSR sort gate)” value was “low polyreactivity”.

Take “QVQLVESGGGLVQAGGSLRLSCAASGSTFLRYVMGWYRQAPGKERELVAAISRRGGSTYYADSVKGRFTISRDNAKNTVYLQMNSLNPEDTAGYYCARTVGYRTLLESDSCGQGTQVTVSS”: the “polyreactivity (PSR sort gate)” value is recorded as “high polyreactivity”.

Consider “QVQLVESGGGLVQAGGSLRLSCAASGSTFLSNAMGWYRPAPGKERELVAAITTSGTSTFDADSVKGRFTISRDNAKTTVYLQMNSLKPEDTAVYCAKDYLPYLHFVAPSTGDYDYWGQGTQVTVSS”, for which the “polyreactivity (PSR sort gate)” value is “low polyreactivity”.

On to “QVQLVESGGGLVQAGGSLRLSCAASGSTFLSYVMGWYRQAPGKERELVAAINRDGGRTYYADSVKGRFTISRDNAKNTVYLQMNSLKPEDTAVYYCATTSQATSGPRRKLYYYWGQGTQVTVSS”, for which the “polyreactivity (PSR sort gate)” value is “high polyreactivity”.

Consider “QVQLVESGGGLVQAGGSLRLSCAASGSTFLVNAMGLYRQAPGKEREFVAAITGNAGSTYYADSVKGRFTISRDNAKITVYLQMNSLIPEDTAVYYCARTRRTPRGYLDFSLREYDYWGQGTQVTVSS”, for which the “polyreactivity (PSR sort gate)” value is given as “low polyreactivity”.

Consider “QVQLVESGGGLVQAGGSLRLSCAASGSTFLVNAMGWYRQAPGKERELVAAITQSGGSTFYADSVKGRFTISRDNEKNTVYLQMNSLKPEDTAVYYWGQGTQVSVSS”, for which the “polyreactivity (PSR sort gate)” value is “low polyreactivity”.

Turning to “QVQLVESGGGLVQAGGSLRLSCAASGSTFLVNGMGWYRQAPGKERELVAAISSGDGSTYYADSVKGRFTISRDNAKNTVYLQMNSLKPEDTAVYYCAVDCWWTGYDYWGQGTQVTVSS”, the “polyreactivity (PSR sort gate)” value is listed as “low polyreactivity”.

Consider “QVQLVESGGGLVQAGGSLRLSCAASGSTFLVYAMGWYRQAPGKERELVAVIDNGGDTYYADSVKGRFTISRDNAKNTVYLQMNSLIPEDTEVYYCAADLSYLGYWEYDYWGQGTQVTVSS”, for which the “polyreactivity (PSR sort gate)” value is listed as “low polyreactivity”.

Turning to “QVQLVESGGGLVQAGGSLRLSCAASGSTFLVYAMGWYRQAPGKERELVAVIRWRDGSTYYADSVKGRFTISRDNAKNTVYLQMNSLKPEDTAVYYCAAVYWGEEYEYWGQGTQVTVSS”, the “polyreactivity (PSR sort gate)” value was “low polyreactivity”.

Consider “QVQLVESGGGLVQAGGSLRLSCAASGSTFLVYDRGWYRQAPGKERELVAAITWSGGSTYYADSVKGRFTISRDNAKNTVYLQINSLTPEYTAVYYCAAEIHRTYSWEYPYEMYWGQGTQVTVSS”, for which the “polyreactivity (PSR sort gate)” value is given as “high polyreactivity”.

Take “QVQLVESGGGLVQAGGSLRLSCAASGSTFLYYAMGWYRQAPGKERELVAAIDSGGSTYYADSVKGRFTISRDNAKNTVYLQMNSLKPEDTAVYYCNADFADHWPPNGPGALDYWGQGTQVTVSS”: the “polyreactivity (PSR sort gate)” value is recorded as “low polyreactivity”.

Consider “QVQLVESGGGLVQAGGSLRLSCAASGSTFMDYAMGWYRQAPGKERELVAAISSGGSTNYADSVKGRFTISRDNAKNTVYLQMNSLKPEDTAVYYCNADYYWSRTQEFDYWGQGTQVTVSS”, for which the “polyreactivity (PSR sort gate)” value was “high polyreactivity”.

On to “QVQLVESGGGLVQAGGSLRLSCAASGSTFNANTMGWYRQAPGKEREFVAAISWTGASTYYADSVKGRFTISRDNAKNTVYLHMNSLKPEDTAVDYCNADYTVADGPYRDGYDYWGQGTQVTVSS”, for which the “polyreactivity (PSR sort gate)” value is listed as “low polyreactivity”.

For “QVQLVESGGGLVQAGGSLRLSCAASGSTFNANTMGWYRQAPGKEREFVAAISWTGASTYYADSVKGRFTISRDNAKNTVYLQMNSLKPEDTAVYYCNADYTVADGPYRDGYDYWGQGTQVTVSS”, the “polyreactivity (PSR sort gate)” value is listed as “low polyreactivity”.

Regarding “QVQLVESGGGLVQAGGSLRLSCAASGSTFNAYAMGWYRQAPGKERELVAVISSSGGRTYYADSVKGSFTISRDNAKNTVYLQMNSLKPEDTAVYYCNADVKYRYNHWGQGTQVTLSS”, the “polyreactivity (PSR sort gate)” value is reported as “high polyreactivity”.

In the case of “QVQLVESGGGLVQAGGSLRLSCAASGSTFNAYVMGWYRQAPGKERELVAAITRGGSTNYADSVKGRFTISRDNAKNTVYLQMNSLKPEDTAVYDCAARGPWVIPYDYWGQGTQVTVSS”, the “polyreactivity (PSR sort gate)” value is given as “low polyreactivity”.

“QVQLVESGGGLVQAGGSLRLSCAASGSTFNHNAMGWYRQAPGKERELVAAITSGTSTYYADSVKGRFTISRDNAKNTVYLQMNSLKPEDTAVYYCAADSPWGGGYFVLYNYWGQGTQVTVSS”: the “polyreactivity (PSR sort gate)” value is “low polyreactivity”.

For the sequence “QVQLVESGGGLVQAGGSLRLSCAASGSTFNIYAMGWYRQAPGKERELVAAITWSTGRTYYADSVKGRFTISRDTAKNTVYLQMNSLKPEDTAVYYCAARSKIRAFGYWGLGTQVTVSS”, the “polyreactivity (PSR sort gate)” value was “high polyreactivity”.

Regarding “QVQLVESGGGLVQAGGSLRLSCAASGSTFNIYTMGWYRQAPGKERELVARITFSGGSTYYADSVKGRFTISRDNAKNTVYLQMNSLKPEDTAVYYCAVRVYRVDHFGYDYWGQGTQVTVSS”, the “polyreactivity (PSR sort gate)” value is on record as “high polyreactivity”.

With “QVQLVESGGGLVQAGGSLRLSCAASGSTFNKYTMGWYRQAPGKERELVAAITSGDSTYYADSVKGRFTISRDNAKNTVYLQMNSLKPEDTAVYYCAADVRYFDPFDWWGSLVLAYDYWGQGTQVTVSS”, the “polyreactivity (PSR sort gate)” value is “low polyreactivity”.

Regarding “QVQLVESGGGLVQAGGSLRLSCAASGSTFNQNAMGWYRQAPGKERELVARITSGGSTYYADSVKGRFTISRDNAKNTVYLQMNSLKPEDTAVYYCAARANPYVLKYYYWGQGTQVTVSS”, the “polyreactivity (PSR sort gate)” value is recorded as “high polyreactivity”.

On to “QVQLVESGGGLVQAGGSLRLSCAASGSTFNRNTMGWYRQAPGKERELVAAITSSGGRTYYADSVKGRFTISRDNAKNTVFLQVNSLKPEDTAVYYCATVNRVLIAGRFDSWGQGTQVTVSS”, for which the “polyreactivity (PSR sort gate)” value is reported as “high polyreactivity”.

As to “QVQLVESGGGLVQAGGSLRLSCAASGSTFNRYAMGWYIQAPGKERELVAAITRSGTSTYYADSVKGRFTISRDNAKNTVYLQMNSLKPEDTAVYYCAAVRYAVHFSYDYWGQGTQVTVSS”, the “polyreactivity (PSR sort gate)” value is given as “high polyreactivity”.

As for “QVQLVESGGGLVQAGGSLRLSCAASGSTFNRYAMGWYRQAPGKERELVADINSGGRTNYADSVKGRFTISRDNAKNTVYLQMNSLKPEDTAVYFCARRFQYWLSGGQYDYWGQGTQVTVSS”, the “polyreactivity (PSR sort gate)” value is on record as “high polyreactivity”.

On to “QVQLVESGGGLVQAGGSLRLSCAASGSTFNSNAMGWYRQAPGKERELVAAISYSGGRTYYADSVKGRFTISRDNAKNTVYLQMNSLKPEDTAVYYCAKSPNHYIHFDYWGQGTQVTVSS”, for which the “polyreactivity (PSR sort gate)” value is given as “low polyreactivity”.

Regarding “QVQLVESGGGLVQAGGSLRLSCAASGSTFNSYAMGWNRQAPGKERELVDRILWSGSTYYADSVKGRFTISRDNAKNTVYLQMNSLKPEDTAVYYFAAKRGYHIGDYWGQCTQVTVSS”, the “polyreactivity (PSR sort gate)” value is reported as “high polyreactivity”.

Take “QVQLVESGGGLVQAGGSLRLSCAASGSTFNSYAMGWYRQAPWKERELVAAISSTGGNTYYADSVKGRFTISRDNAKNTVYLQMNSLKPEDTAVYYCNARRYGKVVRSRYNYWGQGTQVTVSS”: the “polyreactivity (PSR sort gate)” value is “high polyreactivity”.

As for “QVQLVESGGGLVQAGGSLRLSCAASGSTFNTYAMGWYRQAPGKERELVAAITFSVGSTYYADSVKGRFTISRDNAKNTVYLQMNSLKPEDTAVYYCARRGAYTGRYDYWGQGTQVTVSS”, the “polyreactivity (PSR sort gate)” value is “high polyreactivity”.

Regarding “QVQLVESGGGLVQAGGSLRLSCAASGSTFNYYALGGYRQAPGKERELVAAISTSDGSTYYADSVKGRFTISRDNAKITVYVQMNSLKPEDTAVYYCAADSYERFPSYYYWGQGTQVTVSS”, the “polyreactivity (PSR sort gate)” value was “low polyreactivity”.

In the case of “QVQLVESGGGLVQAGGSLRLSCAASGSTFNYYAMGWNRQAPVKERELVATISWSGDSTYADSVKGRFTISRDNAKNTVYLQMHSLKPEDTAVYYCATSGDWWCFRYDYWGQGTQVTVSS”, the “polyreactivity (PSR sort gate)” value is on record as “low polyreactivity”.

For “QVQLVESGGGLVQAGGSLRLSCAASGSTFNYYAMGWYRPAPGKERELVAAICSRSSRTFYADSVKGRFSISRDNEKNTVYLQMNSLKPEDTAVYYCAVKKRAPDGDYWGQGSQVTVSS”, the “polyreactivity (PSR sort gate)” value was “high polyreactivity”.

For the sequence “QVQLVESGGGLVQAGGSLRLSCAASGSTFNYYAMGWYRQAPGKERELVAAISSSGGTTYYADSVKGRFTISRDNAKNTVYLQMKSLKPEDTAVYYCATDTPPYWGGSHFDYWGQGTQVTVSS”, the “polyreactivity (PSR sort gate)” value is on record as “low polyreactivity”.

For “QVQLVESGGGLVQAGGSLRLSCAASGSTFNYYAMGWYRQAPGKERELVARISWSGSTYADSVKGRFTISRDNAKNTVYLQMNSLKPEDTAVYYCAAPYVQKSHRGMDYWGQGTQVTVSS”, the “polyreactivity (PSR sort gate)” value is “low polyreactivity”.

“QVQLVESGGGLVQAGGSLRLSCAASGSTFPANAMGWYRPAPGKERELVATSSWSGGRTYYADSVKGRFTISRDNAKNTVDLQMNSLKPEDTAVYYCAKGYYWLSTYGDSRYGYWGQGTQVTVSS”: the “polyreactivity (PSR sort gate)” value is “high polyreactivity”.

Take “QVQLVESGGGLVQAGGSLRLSCAASGSTFPAYAMGWYRQAPGKERELVATITYTGGSTYYADSVKGRFTISRDNAKNTVYLQMNSLKPEDTAVYYCAADRLVQEDEFDYWGQGTQVTVSS”: the “polyreactivity (PSR sort gate)” value was “low polyreactivity”.

For the sequence “QVQLVESGGGLVQAGGSLRLSCAASGSTFPDNAMGWYRQAPGKERELVAAISFSSGSTYYADSVKGRFTISRDNAKNTVYLQMNILKPEDTAVYYCAVANPSQYEWIAYYYWGQGTQVTVSS”, the “polyreactivity (PSR sort gate)” value is reported as “low polyreactivity”.
